Laboratory results reported in IntAct's records for PubMed 25893917.

B1: Twist-related protein 1 (Mus musculus), P26687 (parent)
chain: MMQDVSSSPVSPADDSLSNSEEEPDRQQPASGKRGARKRRSSRRSAGGSAGPGGATGGGIGGGDEPGSPAQGKRGKKSAGGGGGGGAGGGGGGGGGSSSGGGSPQSYEELQTQRVMANVRERQRTQSLNEAFAALRKIIPTLPSDKLSKIQTLKLAARYIDFLYQVLQSDELDSKMASCSYVAHERLSYAFSVWRMEGAWSMSASH
partner: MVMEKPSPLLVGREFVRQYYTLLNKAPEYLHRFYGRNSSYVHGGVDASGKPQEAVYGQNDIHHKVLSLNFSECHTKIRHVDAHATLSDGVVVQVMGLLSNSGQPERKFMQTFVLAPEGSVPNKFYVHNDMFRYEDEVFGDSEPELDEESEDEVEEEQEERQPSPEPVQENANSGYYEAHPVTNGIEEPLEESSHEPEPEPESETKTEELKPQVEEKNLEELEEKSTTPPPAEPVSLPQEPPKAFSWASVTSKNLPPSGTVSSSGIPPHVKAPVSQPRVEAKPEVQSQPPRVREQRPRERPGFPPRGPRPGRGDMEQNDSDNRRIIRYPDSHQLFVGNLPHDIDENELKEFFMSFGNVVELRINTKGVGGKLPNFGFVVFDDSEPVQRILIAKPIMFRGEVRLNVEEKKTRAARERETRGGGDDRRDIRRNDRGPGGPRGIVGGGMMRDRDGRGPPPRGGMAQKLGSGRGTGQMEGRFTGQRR

Variants of: B1
Conditions: with G3BP2, Q9UN86

effect of a mutation on the interaction | Variant
decreasing interaction strength | Y107E
